The nanobody polyreactivity screen of Harvey et al. (2022)

Assay: yeast display, Sf9 membrane polyspecificity reagent, FACS + sequencing; frameworks hold sequencing errors
Method in brief: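 Nanobodies from a synthetic yeast display library (Saccharomyces cerevisiae BJ5465), induced 36–48 hours with galactose, were stained 1 hour at 4 °C with 10% biotinylated, detergent-solubilized Sf9 membrane reagent, enriched on streptavidin microbeads, then FACS-sorted. Anti-HA (expression) and streptavidin (reagent binding) fluorescence set low and high (top ~1%) gates. Polyreactivity labels come from the gate of origin. Genes were colony-PCR amplified, MiSeq 2 × 250 sequenced and filtered by CDR length.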

Row | Sequence | polyreactivity (PSR sort gate)
1 | QVQLVESGGGIVQAGGSLRLSCAASGSIFRRYATGWYRQAPGKERELVAAISSGGSTYADSVKGRFTISRDNAKNTVYLQMNSLKPEDTAVYYCAVDWAQEDGYWGQGTQVTVSS | low polyreactivity
2 | QVQLVESGGGIVQAGGSLRLSCAASGSIFRYNVMGLYRQAPGKERELVAGITRIGGSTYYADSVKGRFTISRDNAKNTVYLQMNSLKQEDTAVYYCGTARFSYPGPFGWLDEYYYWGQGTQVTVSS | low polyreactivity
3 | QVQLVESGGGIVQAGGSLRLSCAASGSIFSGNAMGWYRQAPGKERELVAAIDRGGSTYYADSVKGRFTISRDNAKNTVYLQMNRLKPEDTAVYYCAKEYIVYNWAFYYWGQGTQVTVSS | low polyreactivity
4 | QVQLVESGGGIVQAGGSLRLSCAASGSIFTRYAMGWYRPAPGKERELVAAITKSGSRTYYADSVKGRFTISRDNAKNTVYLQLNCLIAEDTAVFYCATLQGDSSSQYDYWGQGTQVTVSS | high polyreactivity
5 | QVQLVESGGGIVQAGGSLRLSCAASGSIFTVNALGWYRQAPGKERELVAAITFGGGRTYYADSVKGRFTISRDNAKNTVYLQMNSLKPEDTAVYYCAVSRKGLGSVEYWGQGTQVTVSS | low polyreactivity
6 | QVQLVESGGGIVQAGGSLRLSCAASGSILDPNAMGTYRQAPGKEREFVASISASGGSTYYADSVKGRFSISRDIAKNTVYLQLNSLKPEDTAVYYCATLQGDSSSQYDYWGQGTQVTVSS | high polyreactivity
7 | QVQLVESGGGIVQAGGSLRLSCAASGSTFDRYAMGWYRQAPGKERALVAAISWSGGSTYYADSVKGRFTISRDNAKNTVFLQMNSLKPEDTAVYYCNTASYYRRFHKYDYWGQGTQVTVSS | high polyreactivity
8 | QVQLVESGGGIVQAGGSLRLSCAASGSTFKSYAMGWYRQAPGKERELVAAITHRGSTYYADSVKGSFTISRDNAKNTVYLQMKSLKPEDTAVYYCNVRRICNGRRVDYWGQGTQVTVSS | high polyreactivity
9 | QVQLVESGGGIVQAGGSLRLSCAASGSTFSKYAMGWYRQAPGNERELVAAISSRGGSTYYADSVKGRFTISRDNAKNTVYLQMNCLKPEDTAVYYCAAKFYAEYGYWGHGTQVTVSS | high polyreactivity
10 | QVQLVESGGGIVQAGGSLRLSCAASGSTFYKYAMGWYRQAPGKERELVASISRSGGSTSYADSVKGRFTISRDNAKNTVYLQMNSLKPEDTAVYYCAARSLSWTPYYYWGQGTQVTVSS | high polyreactivity
11 | QVQLVESGGGIVQAGGSLRLSCAASGSTGFNTMGWYRQAPGKERELVAAIRATGGSTYYADSVKGRFTISRDNAKNTVYLQMNSLKPEDTAVYYCAAKWFRQYLRQDRYYYWGQGTQVTVSS | high polyreactivity
12 | QVQLVESGGGIVQAGGSLRLSCAASGSTLGSNSMGWYRQAPGKERELVAAITWSGGTTYYADSVKGRFTISRDNAKNTVYLQMNSLKPEYTAVYYCATGQSVIYRYEYWGQGTQVTVSS | low polyreactivity
13 | QVQLVESGGGIVQAGGSLRLSCAASGSTLRWNAMGWYRQAPGKERELVAAIRWSTGSTYYADSVKGRFTISRDNAKNTVYLQMNSLKPEDTAVYYCAARQGRARTPNDHNYWGQGTKVTVSS | high polyreactivity
14 | QVQLVESGGGIVQAGGSLRLSCAASGSTLYLYVMGWYRQAPGKERELVAVISSSSGRTYYADSVKGRFTISRDNAKNTVYLQMNSLKPEDTAVYYCAADNYVGYHWYNYWGQGTQVTVSS | high polyreactivity
15 | QVQLVESGGGIVQAGGSLRLSCAASGSTYYGYTMGWYRQAPGKERELVAVITSGGSTYYADSVKGRFTISRDNAKNTVYLQMNILKPEDRAVYYCAKRYGYPAYGRPWRIGRTYDYWGQGTQVTVSS | low polyreactivity
16 | QVQLVESGGGIVQAGGSLRLSCAASGYTFPRYAMGWYRQAPGKERELVAAITSRGGSTYYADSVKGRFTISRDNAKNTVYLQMNSLKPEDTAVYYCAVLGFGALDFDSWGQGTQVTVSS | high polyreactivity
17 | QVQLVESGGGIVQAGGSLRLSCAASGYTYPRYTMGWYRQAPGKERELVAVIRRSGGTHYADSVKGRFTISRDNAKNTVYLHMNRLKPEETAVYYCAVVSFLPNIPYGYWGQGTQVTVSS | high polyreactivity
18 | QVQLVESGGGIVQAGGSLRLSCADSGFTFAFYAMGRYRQAPRKERELVAAISSGGGNTYYADSVKGRFTISRDNAKNTVYLQMNSLNPEDTAVYYCATRYISQGGYWGQGTQVTVSS | high polyreactivity
19 | QVQLVESGGGIVQAGGSLRLSCAGSGGILGDNTMGWYGHAPGKERELGASITRGGTTNYADSLTGRFTISREHAKNTVYFQKISLKPVDTAVYYCNAAVERFGDSPDYDYWGQGTQVTVSS | low polyreactivity
20 | QVQLVESGGGIVQAGGSLRLSCASSGFTLGLYAMGWYRQAPGKERELVAVISGRGSRTYYADSVKGRFTISRDNAKNTVYLQMNSLKPEDTAVYYCAASYRTYYRTGYDYWGQGTQVTVSS | high polyreactivity
21 | QVQLVESGGGIVQAGGSLRLSCPASGLTFIYYAMGWYRQAPGKERELVAAITRGTSTYYADSVKGRFTISRDNAKNTVYLQMNSLKPEDTAVYDCAAKSRRVRTYNYWGQGTQVTVSS | high polyreactivity

Row | Sequence | polyreactivity (PSR sort gate)
22 | QVQLVESGGGIVQAGGSLRLSRAASGFTFPFYAMRWYRQAHGKERELVAAISQSGVRTYYADSVKGRFTISRDNAKNSVYLLMNSLKPEDTAVYYCAATSLNTRTGYWGQGTQVTVSS | high polyreactivity
23 | QVQLVESGGGIVQAGGSLRLSSAATGRIYAKNAMGWYRQAPGKERELVAAINHSVGSTYYADSVKARFTISRDNANNTVYLQMISLIQEDTAVYYCATLQGDSSSQYDYWGQGTQVTVSS | high polyreactivity
24 | QVQLVESGGGIVQAGGSLRLTCAASGRIFIYYYMGWYRQAPGKERELVADITLSGGSTYYADSVKGRFTISRDNAKNNVYLQMTSLKPEDTAVYYCAATRRYWKIFFGDGDYWGQATQVTVSS | high polyreactivity
25 | QVQLVESGGGIVQAGGSLRVSCAASGRTFWGYAMGWYRQAPGKERELVAALNKSGGSTYYADSVKGRFTISRDNAKNTVYLQKNSLNPEDTAVYYCIAVYYWYKGDYWGQGTQVTVSS | high polyreactivity
26 | QVQLVESGGGIVQAGRSLRVSCADSGSAFPRYDMGWYRPAPGKERELVAAISRGGSTNYADSVKGRFTLSRDNATNSVSLQMFCLIPVDPAVYYCAAQIFESAYGIVYWGQRTQVTVSS | low polyreactivity
27 | QVQLVESGGGIVQAGVSLRLSCAASGITFIRYAMGWYRQAPGKERELVAAISSSGGSTYYADSVKGRFTISRDNAKNTVYLQMISLKPEDTAVYYCAARIPDRQDGYGYWGQGTQVTVSS | high polyreactivity
28 | QVQLVESGGGKVQAGGSLRLSCAASGLTFWSYAMGWYRQAPGKERELVAAISGTGGRTYYADSVKGRFTITRDNAKNTVYLQMTSLKPEDTAVYYCTARTWRWYFTFDYWGQGTQVNVSS | high polyreactivity
29 | QVQLVESGGGKVQAGGSLRLSCPPSGRTFYYYAMGWYRQAPGKVRELVAVIRSSGDSTYYADSVKGRFTISRDNEKNTVYLQMKSLKPDDTAVDYCAADAPSRSYSWHPRYYYWGQGSQVTVSS | low polyreactivity
30 | QVQLVESGGGLAQAGGSLRLTCAASGNTFPLYPMGWYRQAPGKERELFAAISQRGGSTYYSDSVKGRFTISRDYAKNTVYLQMNSLKPEDTAFYYCAATWADEYQYRRYYYWGQGTQVTVSS | high polyreactivity
31 | QVQLVESGGGLDQAGGSLPLSCASSGSIFRSNAMGWSRQPPAKAREMVAAITESGDTTNYADSVKGRFTISRDNAKNTVYLQMNSLKPEDTAVYYCNAGWTMSYVYSQMDYWGQGTQVTVSS | low polyreactivity
32 | QVQLVESGGGLDQAGGSLRLICAASGSTFGGYVMGWYRQAPGKERELVAAISRSGASTYYADSVKGRFTISRDNAKNTVYLQMNSLKPEDTAVYYCAAYQARGMDYWGQGTQVTVSS | high polyreactivity
33 | QVQLVESGGGLDQAGGSLRLICASSGRTFYPNAMGWYRQAPGKEREFVAAITWSGGGTFYADSVKGRFTISRDHAKNTVYLQMLSLNPEDTAVYYCAARLDTYQTQSVITPAALYYWGQGTQETVSS | low polyreactivity
34 | QVQLVESGGGLDQAGGSLRLSCAAAGFIFHLNAMGWYRQAPGKERELLASIRSSGDSTHYADSEKGRFTISRDNAKITVYLQMNSLKPEDTAVFYCNADFYPAGTLTYDYWGQGTQVTVSS | low polyreactivity
35 | QVQLVESGGGLDQAGGSLRLSCAASARTFTYYAMGWYRQAPGKERELVAAIRWTGDSTYYADSVKGRFTISRDYAKNTVYLQMNSLKPEDTAVYYCAKQARWQYDGGIRWYYYWGQGTQVTVSS | high polyreactivity
36 | QVQLVESGGGLDQAGGSLRLSCAASGFAFSYYAMGWYRQAPGKEREFVASIDWSGGSTYYADSVKGRFTISRDNAKNTVYLQMNSLKPEDTAVYYCAAELDYFPGYDYWGQGTQVTVSS | low polyreactivity
37 | QVQLVESGGGLDQAGGSLRLSCAASGFIFFINDMGWYRQAPGKERELVAAISWSGGSTYYADSVKGRFTISRDNAKNTVYLQMNSLKPEDTAVYYCNTDVPTAQYDYWGQGTQVTVSS | low polyreactivity
38 | QVQLVESGGGLDQAGGSLRLSCAASGFIFFRYAMGWYRQAPGKERELVAGNNGSDGSTYYADSVKGRFTISRDNAKNTVYLQMNSLKPEDTAVYYCAAEGGFSPQPYNLYYATPREDYWGQGTQVTVSS | low polyreactivity
39 | QVQLVESGGGLDQAGGSLRLSCAASGFIFPIYAMGWNRQAPGKERELVAAISWSGGSTYYADSVKGRFTISRDNAKNTVYLQMNSLKPEDTAVYYCAKRYPYYPYDYWGQGTQVTVSS | high polyreactivity
40 | QVQLVESGGGLDQAGGSLRLSCAASGFIFPVYAMGWSRPAPGKERELVAAIRRGGSTNYADSVKGRFTISRDNAKNTVYVQMNSLKPEDTAVYYCAKTIGLKHEDEYWGQGTQVTVSS | low polyreactivity
41 | QVQLVESGGGLDQAGGSLRLSCAASGFIFYSNAMGWYRQAPGKERELVAAISRGGGSTYYADSVKGRFTISRDNAKNTVYLQLNSLKPEDTAVYYCAKRRLSPQDDYWGQGTQVTLSS | high polyreactivity
